In patent publication US11325966:

How the values were obtained:
Assay in all cases: cell-based or functional assay
[1] = target: HIV-1 envelope (Env) of pseudovirus C3347.c11 (HIV-1)
[2] = target: HIV-1 envelope (Env) of pseudovirus Q23.17 (HIV-1)
[3] = target: HIV-1 envelope (Env) of pseudovirus CNE52 (HIV-1)
[4] = target: HIV-1 envelope (Env) of pseudovirus 6952.v1.c20 (HIV-1)
[5] = target: HIV-1 envelope (Env) of pseudovirus TRJO4551.58 (HIV-1)
[6] = target: HIV-1 envelope (Env) of pseudovirus X1193_c1 (HIV-1)
[7] = target: HIV-1 envelope (Env) of pseudovirus BJOX025000.01.1 (HIV-1)
[8] = target: HIV-1 envelope (Env) of pseudovirus YU2_N276D (HIV-1) (UniProt P35961)
[9] = target: HIV-1 envelope (Env) of pseudovirus CAP45.2.00.G3 (HIV-1)
[10] = target: HIV-1 envelope (Env) of pseudovirus X2088_c9 (HIV-1)
[11] = target: HIV-1 envelope (Env) of pseudovirus T257-31 (HIV-1)
[12] = target: HIV-1 envelope (Env) of pseudovirus HIV-16055-2.3 (HIV-1)
[13] = target: HIV-1 envelope (Env) of pseudovirus X1632_S2_B10 (HIV-1)
[14] = target: HIV-1 envelope (Env) of pseudovirus CAAN5342.A2 (HIV-1)
[15] = target: HIV-1 envelope (Env) of pseudovirus WITO4160.33 (HIV-1)
[16] = target: HIV-1 envelope (Env) of pseudovirus R1166.c01 (HIV-1)
[17] = target: HIV-1 envelope (Env) of pseudovirus CNE19 (HIV-1)
[18] = target: HIV-1 envelope (Env) of pseudovirus CAP210.2.00.E8 (HIV-1)
[19] = target: HIV-1 envelope (Env) of pseudovirus 231966.c02 (HIV-1)
[20] = target: HIV-1 envelope (Env) of pseudovirus 6540.v4.c1 (HIV-1)
[21] = target: HIV-1 envelope (Env) of pseudovirus Ce703010054_2A2 (HIV-1)
[22] = target: HIV-1 envelope (Env) of pseudovirus ZM233M.PB6 (HIV-1)
[23] = target: HIV-1 envelope (Env) of pseudovirus ZM197M.PB7 (HIV-1)
[24] = target: HIV-1 envelope (Env) of pseudovirus T255-34 (HIV-1)
[25] = target: HIV-1 envelope (Env) of pseudovirus 620345.c01 (HIV-1)
[26] = target: HIV-1 envelope (Env) of pseudovirus BJOX009000.02.4 (HIV-1)
[27] = target: HIV-1 envelope (Env) of pseudovirus 6480.v4.c25 (HIV-1)
[28] = target: HIV-1 envelope (Env) of pseudovirus 1056_10_TA11_1826 (HIV-1)
[29] = target: HIV-1 envelope (Env) of pseudovirus 263-8 (HIV-1)
[30] = target: HIV-1 envelope (Env) of pseudovirus SC05_8C11_2344 (HIV-1)
[31] = target: HIV-1 envelope (Env) of pseudovirus CNE53 (HIV-1)
[32] = target: HIV-1 envelope (Env) of pseudovirus ZM247v1 (Rev-) (HIV-1)
[33] = target: HIV-1 envelope (Env) of pseudovirus C1080.c03 (HIV-1)
[34] = target: HIV-1 envelope (Env) of pseudovirus CNE30 (HIV-1)
[35] = target: HIV-1 Env of pseudovirus ZM135M.PE10a (HIV-1)
[36] = target: BG505 (T332N) N301A (HIV-1)
[37] = target: HIV-1 Env of pseudovirus 1394C9G1 (Rev-) (HIV-1)
[38] = target: HIV-1 YU2 Env N276D, on pseudovirus (HIV-1) (UniProt P35961)

Substance: BG1 (antibody)
- IC50 in TZM-bl assay [1]: > 30 µg/mL
- IC80 in TZM-bl assay [1]: > 30 µg/mL
- IC50 in TZM-bl assay [2]: 0.008 µg/mL
- IC80 in TZM-bl assay [2]: 0.016 µg/mL
- IC50 in TZM-bl assay [3]: 0.975 µg/mL
- IC80 in TZM-bl assay [3]: 5.01 µg/mL
- IC50 in TZM-bl assay [4]: > 30 µg/mL
- IC80 in TZM-bl assay [4]: > 30 µg/mL
- IC50 in TZM-bl assay [5]: > 30 µg/mL
- IC80 in TZM-bl assay [5]: > 30 µg/mL
- IC50 in TZM-bl assay [6]: 0.138 µg/mL
- IC80 in TZM-bl assay [6]: 0.463 µg/mL
- IC50 in TZM-bl assay [7]: > 30 µg/mL
- IC80 in TZM-bl assay [7]: > 30 µg/mL
- IC50 in TZM-bl assay [8]: 18.8 µg/mL
- IC80 in TZM-bl assay [8]: > 30 µg/mL
- IC50 in TZM-bl assay [9]: 0.149 µg/mL
- IC80 in TZM-bl assay [9]: 0.383 µg/mL
- IC50 in TZM-bl assay [10]: > 30 µg/mL
- IC80 in TZM-bl assay [10]: > 30 µg/mL
- IC50 in TZM-bl assay [11]: > 30 µg/mL
- IC80 in TZM-bl assay [11]: > 30 µg/mL
- IC50 in TZM-bl assay [12]: 4.3 µg/mL
- IC80 in TZM-bl assay [12]: 16.9 µg/mL
- IC50 in TZM-bl assay [13]: 0.079 µg/mL
- IC80 in TZM-bl assay [13]: 0.25 µg/mL
- IC50 in TZM-bl assay [14]: > 30 µg/mL
- IC80 in TZM-bl assay [14]: > 30 µg/mL
- IC50 in TZM-bl assay [15]: 0.002 µg/mL
- IC80 in TZM-bl assay [15]: 0.014 µg/mL
- IC50 in TZM-bl assay [16]: > 30 µg/mL
- IC80 in TZM-bl assay [16]: > 30 µg/mL
- IC50 in TZM-bl assay [17]: 1.27 µg/mL
- IC80 in TZM-bl assay [17]: 10.9 µg/mL
- IC50 in TZM-bl assay [18]: > 30 µg/mL
- IC80 in TZM-bl assay [18]: > 30 µg/mL
- IC50 in TZM-bl assay [19]: > 30 µg/mL
- IC80 in TZM-bl assay [19]: > 30 µg/mL
- IC50 in TZM-bl assay [20]: > 30 µg/mL
- IC80 in TZM-bl assay [20]: > 30 µg/mL
- IC50 in TZM-bl assay [21]: > 30 µg/mL
- IC80 in TZM-bl assay [21]: > 30 µg/mL
- IC50 in TZM-bl assay [22]: > 30 µg/mL
- IC80 in TZM-bl assay [22]: > 30 µg/mL
- IC50 in TZM-bl assay [23]: > 30 µg/mL
- IC80 in TZM-bl assay [23]: > 30 µg/mL
- IC50 in TZM-bl assay [24]: 11.6 µg/mL
- IC80 in TZM-bl assay [24]: > 30 µg/mL
- IC50 in TZM-bl assay [25]: 0.626 µg/mL
- IC80 in TZM-bl assay [25]: 4.23 µg/mL
- IC50 in TZM-bl assay [26]: > 30 µg/mL
- IC80 in TZM-bl assay [26]: > 30 µg/mL
- IC50 in TZM-bl assay [27]: > 30 µg/mL
- IC80 in TZM-bl assay [27]: > 30 µg/mL
- IC50 in TZM-bl assay [28]: 5.43 µg/mL
- IC80 in TZM-bl assay [28]: 29.9 µg/mL
- IC50 in TZM-bl assay [29]: > 30 µg/mL
- IC80 in TZM-bl assay [29]: > 30 µg/mL
- IC50 in TZM-bl assay [30]: > 30 µg/mL
- IC80 in TZM-bl assay [30]: > 30 µg/mL
- IC50 in TZM-bl assay [31]: 1.32 µg/mL
- IC80 in TZM-bl assay [31]: 7.47 µg/mL
- IC50 in TZM-bl assay [32]: > 30 µg/mL
- IC80 in TZM-bl assay [32]: > 30 µg/mL
- IC50 in TZM-bl assay [33]: 0.002 µg/mL
- IC80 in TZM-bl assay [33]: 0.005 µg/mL
- IC50 in TZM-bl assay [34]: > 30 µg/mL
- IC80 in TZM-bl assay [34]: > 30 µg/mL

Substance: 354BG8 (antibody)
- IC50 in TZM-bl assay [35]: 0.061 µg/mL
- IC80 in TZM-bl assay [35]: 0.263 µg/mL
- IC50 in TZM-bl assay [36]: 0.004 µg/mL

Substance: BG18 IgG (354BG18) (antibody)
- IC50 in TZM-bl assay [37]: 0.029 µg/mL
- IC80 in TZM-bl assay [37]: 0.35 µg/mL
- IC50 in TZM-bl assay [38]: 0.012 µg/mL
- IC80 in TZM-bl assay [38]: 0.036 µg/mL
